Key:
[1] = molecular target: T1, nucleosome with the 185-bp DNA fragment (human, UniProt P0C0S8 2-130; P62807 2-124; P68431 2-136; P62805 2-103); assay: nucleosome with 185-bp DNA
[2] = molecular target: T1, nucleosome with the 185-bp DNA fragment; assay: MST; 185-bp nucleosome

B1: NSD2 E1099K mutant protein (973-1226) (domain or fragment)
chain: KLQREARETQESERKPPPYKHIKVNKPYGKVQIYTADISEIPKCNCKPTDENPCGFDSECLNRMLMFECHPQVCPAGEFCQNQCFTKRQYPETKIIKTDGKGWGLVAKRDIRKGEFVNEYVGELIDKEECMARIKHAHENDITHFYMLTIDKDRIIDAGPKGNYSRFMNHSCQPNCETLKWTVNGDTRVGLFAVCDIPAGTELTFNYNLDCLGNEKTVCRCGASNCSGFLGDRPKTSTTLSSEEKGKKTKKKTR
[1]
  Kd: 202 nM
[2]
  Kd: 202 nM

B2: wild-type NSD2 protein (973-1226) (domain or fragment)
chain: KLQREARETQESERKPPPYKHIKVNKPYGKVQIYTADISEIPKCNCKPTDENPCGFDSECLNRMLMFECHPQVCPAGEFCQNQCFTKRQYPETKIIKTDGKGWGLVAKRDIRKGEFVNEYVGELIDEEECMARIKHAHENDITHFYMLTIDKDRIIDAGPKGNYSRFMNHSCQPNCETLKWTVNGDTRVGLFAVCDIPAGTELTFNYNLDCLGNEKTVCRCGASNCSGFLGDRPKTSTTLSSEEKGKKTKKKTR
[1]
  Kd: 88 nM
[2]
  Kd: 88 nM

B3: NSD2 T1150A mutant protein (973-1226) (domain or fragment)
chain: KLQREARETQESERKPPPYKHIKVNKPYGKVQIYTADISEIPKCNCKPTDENPCGFDSECLNRMLMFECHPQVCPAGEFCQNQCFTKRQYPETKIIKTDGKGWGLVAKRDIRKGEFVNEYVGELIDEEECMARIKHAHENDITHFYMLTIDKDRIIDAGPKGNYSRFMNHSCQPNCEALKWTVNGDTRVGLFAVCDIPAGTELTFNYNLDCLGNEKTVCRCGASNCSGFLGDRPKTSTTLSSEEKGKKTKKKTR
[1]
  Kd: 70 nM
[2]
  Kd: 70 nM

From PMC8593083 (2021)
